The values below come from patent US20200095590A1, “TRANSCRIPTION SYSTEM” (AUTOLUS LIMITED, priority 2016, published 2020).

In one test the test system is T cells. Put plainly: Phenotype assay: memory markers by flow cytometry on CAR-TF T cells after co-culture with CD19 positive SKOV3 target cells. The settings on record: for CD62L expression / CD27 expression: co-expressed with CAR (HD37); for proportion of naive and central memory cells (CM): co-expressed with anti-CD19 CAR (HD37), day 0 (post-transduction) and day 7 (6 days after 24 hour co-culture), CD4+ and CD8+ subpopulations. The test is classed as cell-based. The text has this:
A bicistronic construct was expressed in BW5 T cells as a single transcript which self-cleaves at the 2A site to yield a chimeric antigen receptor (CAR); and a transcription factor (TF). Control constructs were also generated which lack the 2A site and the transcription factor (“CAR-only”) or lack the CAR and 2A site (“TF-only”).
The CAR was an anti-CD19 CAR comprising an endodomain derived from CD3 zeta and from the co-stimulatory receptor 41BB.
T cells expressing the various CAR-TF combinations, together with the relevant CAR-only and TF-only controls were co-cultured with CD19 positive SKOV3 target cells for 24 hours before recovering and culturing the T cells until day 7. The expression of the following memory markers was analysed by flow cytometry at day 0 of the co-culture and day 7, to see whether cells expressing factors that bias them towards central memory are more nave post-transduction and remain more nave upon stimulation with antigen-bearing target cells.
Memory Markers—CCR7, CD45RA, CD62L, CD27
The cells were gated on CAR-expression (via RQR8 transduction marker) and various T cell and T-cell subset markers (CD3 and CD8) depending on the sub-population of interest.
(Flow cytometry measures light scatter and fluorescence of single cells or particles in a stream.)

The next test deals with streptavidin (Streptomyces avidinii, UniProt P22629). Particulars: biotin mimicking peptide binding streptavidin; read-out: affinity; cited from earlier work.
streptavidin, sequence (P22629 25-183): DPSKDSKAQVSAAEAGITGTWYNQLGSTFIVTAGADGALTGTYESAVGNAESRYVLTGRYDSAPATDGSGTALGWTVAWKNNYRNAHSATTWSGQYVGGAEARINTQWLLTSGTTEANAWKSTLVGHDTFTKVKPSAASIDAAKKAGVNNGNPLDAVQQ
Where [1] appears, read: 6 days after a 24 hour co-culture with target cells, CD4+ and CD8+ T cells.

On to “Runx3 and CBFbeta: transcription factors Runx3 (SEQ ID No. 13) and CBF beta (SEQ ID No. 22), co-expressed with anti-CD19 CAR in T cells”, for which, in the test on T cells (after transduction (day 0) and 6 days after the 24 hour co-culture), the CD62L expression entry is recorded as “upregulation of CD62L”.
For “biotin mimicking peptide DVEAWLDERVPLVET (SEQ ID NO: 26) (Biotin mimicking peptide, long nanotag)”, in the test with streptavidin, the Kd was 3.6 nM.
In the case of “biotin mimicking peptide CHPQGPPC (SEQ ID NO: 31) [ccstreptag]”, on streptavidin, the Kd was 230 nM.
“biotin mimicking peptide WSHPQFEK (SEQ ID NO: 29) [streptagII]”: the Kd in the test with streptavidin was 72000 nM.
“biotin mimicking peptide DVEAWLGAR (SEQ ID NO: 27) (Biotin mimicking peptide, short nanotag)”: the Kd in the test with streptavidin is 17 nM.
With “BACH2: Bach2 wild type transcription factor (SEQ ID No. 8), co-expressed with anti-CD19 CAR in T cells”, in the test on T cells, the “proportion of naive and central memory cells (CM)” value (“proportion” for short) was “increase in the proportion of nave and central memory cells (CM)”.
Consider “BACH2 S520A: mutant Bach2 with S to A substitution at position 520 (SEQ ID No. 9), co-expressed with anti-CD19 CAR”, for which the “proportion” value in the test on T cells was “increase in the proportion of nave and central memory cells (CM)”.

B1: EOMES: Eomesodermin transcription factor (SEQ ID No. 11), co-expressed with anti-CD19 CAR in T cells (protein, UniProt O95936 1-686, looked up)
Eomesodermin homolog: MQLGEQLLVSSVNLPGAHFYPLESARGGSGGSAGHLPSAAPSPQKLDLDKASKKFSGSLSCEAVSGEPAAASAGAPAAMLSDTDAGDAFASAAAVAKPGPPDGRKGSPCGEEELPSAAAAAAAAAAAAAATARYSMDSLSSERYYLQSPGPQGSELAAPCSLFPYQAAAGAPHGPVYPAPNGARYPYGSMLPPGGFPAAVCPPGRAQFGPGAGAGSGAGGSSGGGGGPGTYQYSQGAPLYGPYPGAAAAGSCGGLGGLGVPGSGFRAHVYLCNRPLWLKFHRHQTEMIITKQGRRMFPFLSFNINGLNPTAHYNVFVEVVLADPNHWRFQGGKWVTCGKADNNMQGNKMYVHPESPNTGSHWMRQEISFGKLKLTNNKGANNNNTQMIVLQSLHKYQPRLHIVEVTEDGVEDLNEPSKTQTFTFSETQFIAVTAYQNTDITQLKIDHNPFAKGFRDNYDSSHQIVPGGRYGVQSFFPEPFVNTLPQARYYNGERTVPQTNGLLSPQQSEEVANPPQRWLVTPVQQPGTNKLDISSYESEYTSSTLLPYGIKSLPLQTSHALGYYPDPTFPAMAGWGGRGSYQRKMAAGLPWTSRTSPTVFSEDQLSKEKVKEEIGSSWIETPPSIKSLDSNDSGVYTSACKRRRLSPSNSSNENSPSIKCEDINAEEYSKDTSKGMGGYYAFYTTP
modifications: co-expressed with anti-CD19 CAR
For B1, in the test with T cells (setting [1]), the CD27 expression result is “significant upregulation of CD27” and the CD62L expression result is “do not show significant up-regulation of CD62L”.

B2: FOXO1: Forkhead box protein O1 transcription factor (SEQ ID No. 12), co-expressed with anti-CD19 CAR in T cells (protein, listed as Homo sapiens)
chain: MAEAPQVVEIDPDFEPLPRPRSCTWPLPRPEFSQSNSATSSPAPSGSAAANPDAAAGLPSASAAAVSADFMSNLSLLEESEDFPQAPGSVAAAVAAAAAAAATGGLCGDFQGPEAGCLHPAPPQPPPPGPLSQHPPVPPAAAGPLAGQPRKSSSSRRNAWGNLSYADLITKAIESSAEKRLTLSQIYEWMVKSVPYFKDKGDSNSSAGWKNSIRHNLSLHSKFIRVQNEGTGKSSWWMLNPEGGKSGKSPRRRAASMDNNSKFAKSRSRAAKKKASLQSGQEGAGDSPGSQFSKWPASPGSHSNDDFDNWSTFRPRTSSNASTISGRLSPIMTEQDDLGEGDVHSMVYPPSAAKMASTLPSLSEISNPENMENLLDNLNLLSSPTSLTVSTQSSPGTMMQQTPCYSFAPPNTSLNSPSPNYQKYTYGQSSMSPLPQMPIQTLQDNKSSYGGMSQYNCAPGLLKELLTSDSPPHNDIMTPVDPGVAQPNSRVLGQNVMMGPNSVMSTYGSQASHNKMMNPSSHTHPGHAQQTSAVNGRPLPHTVSTMPHTSGMNRLTQVKTPVQVPLPHPMQMSALGGYSSVSSCNGYGRMGLLHQEKLPSDLDGMFIERLDCDMESIIRNDLMDGDTLDFNFDNVLPNQSFPHSVKTTTHSWVSG
As to B2, in the test with T cells (setting [1]), the CD27 expression result is “upregulation of CD27, especially on CD8+ cells” and the CD62L expression entry is listed as “significant upregulation of CD62L”. In addition, the “proportion” value with T cells was “greater proportion of nave and central memory cells (CM)”.
